Results taken from the supplement of paper PMC6757056.
± gives the standard deviation of the averaged measurements.

B1: library; a variant is named by its letters at N, in order (parent)
chain: GCUGUCACCGGUGCUUGGUACGUUAUAUUCAGCCGGUCUGAUGAGUCUNNNNNNAGACGAAACAGC

Tests used:
[1] = variants of: B1; experiment: FACS-Seq fitted mean relative fluorescence mCherry/BFP without ligand (log10 relative fluorescence); HEK293T overexpressing SLC46A1; higher = higher reporter protein expression; settings: without (6R,S)-folinic acid; ligand present: no
Method: (§1)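 Hammerhead (sTRSV) ribozyme switch libraries with a ligand aptamer grafted on stem I and a randomized N4-6 loop II, cloned into the 3' UTR of mCherry and transiently transfected into HEK293T cells; RNA-Seq 72 h post transfection with ligand added 1 h before transfection; RNA read count / plasmid DNA read count normalized to the non-cleaving sTRSVctl (x100), log10; sequences with >100 DNA reads. FACS-Seq: lentiviral library sorted into 6 bins after 48 h ligand, log-normal fit mean of mCherry/BFP scaled to controls. Printed sequences are partial switch sequences.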

[2] = variants of: B1; experiment: normalized RNA/DNA level without ligand (relative to sTRSVctl = 100) (log10 (% of sTRSVctl)); HEK293T overexpressing SLC46A1; higher = less ribozyme self-cleavage, higher mRNA level; settings: without (6R,S)-folinic acid; ligand present: no
Method: as §1

[3] = variants of: B1; experiment: FACS-Seq fitted mean relative fluorescence mCherry/BFP with ligand (log10 relative fluorescence); HEK293T overexpressing SLC46A1; ligand concentration (+) FACS-Seq: 6 mM; higher = higher reporter protein expression; settings: with (6R,S)-folinic acid; ligand present: yes
Method: as §1

[4] = variants of: B1; experiment: normalized RNA/DNA level with ligand (relative to sTRSVctl = 100) (log10 (% of sTRSVctl)); HEK293T overexpressing SLC46A1; ligand concentration (+) RNA-Seq: 6 mM; higher = less ribozyme self-cleavage, higher mRNA level; settings: with (6R,S)-folinic acid; ligand present: yes
Method: as §1

Variant | FACS-Seq fitted mean (log10) [1] | normalized RNA/DNA level without ligand (log10) [2] | FACS-Seq fitted mean (log10) [3] | normalized RNA/DNA level with ligand (log10) [4]
GCUGUCACCGGUGCUUGGUACGUUAUAUUCAGCCGGUCUGAUGAGUCUUAAAAAAGACGAAACAGC [UAAAAA] | 0.254 ± 0.059 | 1.9232 ± 0.0015 | 0.164 ± 0.11 | 1.98 ± 0.024
GCUGUCACCGGUGCUUGGUACGUUAUAUUCAGCCGGUCUGAUGAGUCUUAAAAUAGACGAAACAGC [UAAAAU] | 0.0871 ± 0.034 | 1.941 ± 0.016 | 0.075 ± 0.078 | 1.97 ± 0.036
GCUGUCACCGGUGCUUGGUACGUUAUAUUCAGCCGGUCUGAUGAGUCUUAAAAGAGACGAAACAGC [UAAAAG] | 0.335 ± 0.03 | 1.7583 ± 0.00058 | 0.493 ± 0.023 | 1.96 ± 0.049
GCUGUCACCGGUGCUUGGUACGUUAUAUUCAGCCGGUCUGAUGAGUCUUAAAACAGACGAAACAGC [UAAAAC] | 0.386 ± 0.024 | 1.973 ± 0.0055 | 0.499 ± 0.15 | 1.98 ± 0.028
GCUGUCACCGGUGCUUGGUACGUUAUAUUCAGCCGGUCUGAUGAGUCUAAAACGAGACGAAACAGC [AAAACG] | 0.631 ± 0.022 | 1.93 ± 0.0068 | 0.582 ± 0.16 | 1.99 ± 0.015
GCUGUCACCGGUGCUUGGUACGUUAUAUUCAGCCGGUCUGAUGAGUCUAAAACUAGACGAAACAGC [AAAACU] | 0.355 ± 0.07 | 2.024 ± 0.00081 | 0.358 ± 0.15 | 2.03 ± 0.035
GCUGUCACCGGUGCUUGGUACGUUAUAUUCAGCCGGUCUGAUGAGUCUAAAACAAGACGAAACAGC [AAAACA] | 0.359 ± 0.036 | 1.988 ± 0.0088 | 0.304 ± 0.0079 | 2 ± 0.024
GCUGUCACCGGUGCUUGGUACGUUAUAUUCAGCCGGUCUGAUGAGUCUUAAACGAGACGAAACAGC [UAAACG] | 0.324 ± 0.13 | 1.799 ± 0.016 | 0.717 ± 0.1 | 1.95 ± 0.032
GCUGUCACCGGUGCUUGGUACGUUAUAUUCAGCCGGUCUGAUGAGUCUAAAAAUAGACGAAACAGC [AAAAAU] | 0.39 ± 0.039 | 1.944 ± 0.011 | 0.512 ± 0.13 | 1.99 ± 0.029
GCUGUCACCGGUGCUUGGUACGUUAUAUUCAGCCGGUCUGAUGAGUCUAAAAACAGACGAAACAGC [AAAAAC] | 0.164 ± 0.051 | 1.985 ± 0.015 | -0.16 ± 0.076 | 1.99 ± 0.034
GCUGUCACCGGUGCUUGGUACGUUAUAUUCAGCCGGUCUGAUGAGUCUAAAAAAAGACGAAACAGC [AAAAAA] | 0.489 ± 0.019 | 1.948 ± 0.013 | 0.43 ± 0.029 | 1.97 ± 0.036
GCUGUCACCGGUGCUUGGUACGUUAUAUUCAGCCGGUCUGAUGAGUCUAAAAAGAGACGAAACAGC [AAAAAG] | 0.431 ± 0.18 | 1.914 ± 0.0037 | 0.605 ± 0.12 | 2 ± 0.045
GCUGUCACCGGUGCUUGGUACGUUAUAUUCAGCCGGUCUGAUGAGUCUGAAACUAGACGAAACAGC [GAAACU] | 0.175 ± 0.071 | 2.004 ± 0.0055 | 0.437 ± 0.016 | 2.001 ± 0.019
GCUGUCACCGGUGCUUGGUACGUUAUAUUCAGCCGGUCUGAUGAGUCUCAAAACAGACGAAACAGC [CAAAAC] | 0.474 ± 0.076 | 1.9999 ± 0.0015 | 0.589 ± 0.49 | 1.99 ± 0.055
GCUGUCACCGGUGCUUGGUACGUUAUAUUCAGCCGGUCUGAUGAGUCUCAAAAUAGACGAAACAGC [CAAAAU] | -0.131 ± 0.018 | 1.955 ± 0.0057 | -0.505 ± 0.1 | 1.98 ± 0.032
GCUGUCACCGGUGCUUGGUACGUUAUAUUCAGCCGGUCUGAUGAGUCUGAAAGAAGACGAAACAGC [GAAAGA] | 0.353 ± 0.015 | 2.011 ± 0.011 | 0.607 ± 0.25 | 2.04 ± 0.024
GCUGUCACCGGUGCUUGGUACGUUAUAUUCAGCCGGUCUGAUGAGUCUCAAACUAGACGAAACAGC [CAAACU] | 0.433 ± 0.064 | 2.01 ± 0.027 | 0.667 ± 0.16 | 2.01 ± 0.029
GCUGUCACCGGUGCUUGGUACGUUAUAUUCAGCCGGUCUGAUGAGUCUCAAACCAGACGAAACAGC [CAAACC] | 0.546 ± 0.013 | 2.024 ± 0.0088 | 0.377 ± 0.2 | 2.02 ± 0.038
GCUGUCACCGGUGCUUGGUACGUUAUAUUCAGCCGGUCUGAUGAGUCUGAAAAGAGACGAAACAGC [GAAAAG] | 0.162 ± 0.24 | 1.94 ± 0.0028 | -0.223 ± 0.13 | 2 ± 0.032
GCUGUCACCGGUGCUUGGUACGUUAUAUUCAGCCGGUCUGAUGAGUCUGAAAACAGACGAAACAGC [GAAAAC] | 0.181 ± 0.013 | 1.948 ± 0.0025 | 0.078 ± 0.11 | 1.98 ± 0.034
GCUGUCACCGGUGCUUGGUACGUUAUAUUCAGCCGGUCUGAUGAGUCUGAAAAUAGACGAAACAGC [GAAAAU] | 0.553 ± 0.091 | 1.9868 ± 0.0018 | 0.647 ± 0.21 | 2.02 ± 0.022
